Target: the molecule itself
Test: native gel or EMSA; pore-limited native PAGE of purified recombinant A2M; dimers that failed to tetramerize were removed during purification (Fig. S2)

B1: tabula rasa A2M (bait region replaced by 13 Gly-Gly-Ser repeats) (natural protein, human)
chain: SVSGKPQYMVLVPSLLHTETTEKGCVLLSYLNETVTVSASLESVRGNRSLFTDLEAENDVLHCVAFAVPKSSSNEEVMFLTVQVKGPTQEFKKRTTVMVKNEDSLVFVQTDKSIYKPGQTVKFRVVSMDENFHPLNELIPLVYIQDPKGNRIAQWQSFQLEGGLKQFSFPLSSEPFQGSYKVVVQKKSGGRTEHPFTVEEFVLPKFEVQVTVPKIITILEEEMNVSVCGLYTYGKPVPGHVTVSICRKYSDASDCHGEDSQAFCEKFSGQLNSHGCFYQQVKTKVFQLKRKEYEMKLHTEAQIQEEGTVVELTGRQSSEITRTITKLSFVKVDSHFRQGIPFFGQVRLVDGKGVPIPNKVIFIRGNEANYYSNATTDEHGLVQFSINTTNVMGTSLTVRVNYKDRSPCYGYQWVSEEHEEAHHTAYLVFSPSKSFVHLEPMSHELPCGHTQTVQAHYILNGGTLLGLKKLSFYYLIMAKGGIVRTGTHGLLVKQEDMKGHFSISIPVKSDIAPVARLLIYAVLPTGDVIGDSAKYDVENCLANKVDLSFSPSQSLPASHAHLRVTAAPQSVCALRAVDQSVLLMKPDAELSASSVYNLLPEKDLTGFPGPLNDQDNEDCINRHNVYINGITYTPVSSTNEKDMYSFLEDMGLKAFTNSKIRKPKMCGGSGGSGGSGGSGGSGGSGGSGGSGGSGGSGGSGGSGGSETVRKYFPETWIWDLVVVNSAGVAEVGVTVPDTITEWKAGAFCLSEDAGLGISSTASLRAFQPFFVELTMPYSVIRGEAFTLKATVLNYLPKCIRVSVQLEASPAFLAVPVEKEQAPHCICANGRQTVSWAVTPKSLGNVNFTVSAEALESQELCGTEVPSVPEHGRKDTVIKPLLVEPEGLEKETTFNSLLCPSGGEVSEELSLKLPPNVVEESARASVSVLGDILGSAMQNTQNLLQMPYGCGEQNMVLFAPNIYVLDYLNETQQLTPEIKSKAIGYLNTGYQRQLNYKHYDGSYSTFGERYGRNQGNTWLTAFVLKTFAQARAYIFIDEAHITQALIWLSQRQKDNGCFRSSGSLLNNAIKGGVEDEVTLSAYITIALLEIPLTVTHPVVRNALFCLESAWKTAQEGDHGSHVYTKALLAYAFALAGNQDKRKEVLKSLNEEAVKKDNSVHWERPQKPKAPVGHFYEPQAPSAEVEMTSYVLLAYLTAQPAPTSEDLTSATNIVKWITKQQNAQGGFSSTQDTVVALHALSKYGAATFTRTGKAAQVTIQSSGTFSSKFQVDNNNRLLLQQVSLPELPGEYSMKVTGEGCVYLQTSLKYNILPEKEEFPFALGVQTLPQTCDEPKAHTSFQISLSVSYTGSRSASNMAIVDVKMVSGFIPLKPTVKMLERSNHVSRTEVSSNHVLIYLDKVSNQTLSLFFTVLQDVPVRDLKPAIVKVYDYYETDEFAIAEYNAPCSKDLGNA
notes: human alpha2-macroglobulin from its N-terminus to residue 689, the residue before the bait region (residues 690-728); tabula rasa bait region: 13 Gly-Gly-Ser repeats in place of the 39 residues 690-728, told in words; human alpha2-macroglobulin from residue 729, the residue after the bait region, to the C-terminus; Dimers removed during purification; also called A2M TR; A2M tabula rasa
stoichiometry N: 4
